Results on 28 substances are retold here after patent US20110250613A1, “Arrayed Multiple Ubiquitin Binding Domains as Linkage-specific Polyubiquitin Affinity Reagents” (THE JOHNS HOPKINS UNIVERSITY, priority 2009, published 2011).

Test [1] addresses K48-linked diubiquitin (UniProt P0CG48). The test is described as follows: fluorescence anisotropy.
Test [2] has as its target K63-linked diubiquitin (UniProt P0CG48). The test is described as follows: fluorescence anisotropy. In general terms: Polarisation of emitted light reports the rotation of a fluorescent probe.
Test [3] addresses K48-linked diubiquitin (UniProt P0CG48). The test is described as follows: fluorescence anisotropy. This is another data set of the same source.
In test [4] the target is K63-linked diubiquitin (UniProt P0CG48). The test is described as follows: fluorescence anisotropy, alanine linker series.
For test [5], the target named is K63-linked tetraubiquitin (UniProt P0CG48). Description: SPR, GST-UBA captured on anti-GST antibody. A general note: SPR reads the build-up and loss of mass on a sensor chip optically.
Test [6] has as its target K48-linked tetraubiquitin (UniProt P0CG48). Description: SPR, GST-UBA captured on anti-GST antibody.
In test [7] the target is K48-linked diubiquitin (UniProt P0CG48). The test is described as follows: SPR, GST-UBA captured on anti-GST antibody.
In test [8] the target is K63-linked diubiquitin (UniProt P0CG48). The test is described as follows: SPR, GST-UBA captured on anti-GST antibody.
Test [9] addresses K63-linked tetraubiquitin (UniProt P0CG48). The test is described as follows: SPR Kd of GST-UBA1 against fluorescence anisotropy Kd of the free domain.
Test [10] concerns the target K48-linked tetraubiquitin (UniProt P0CG48). The test is described as follows: fluorescence anisotropy, ratio of Kd.
The target in test [11] is K63-linked tetraubiquitin (UniProt P0CG48). The test is described as follows: fluorescence anisotropy.
Test [12] concerns the target K48-linked tetraubiquitin (UniProt P0CG48). Description: fluorescence anisotropy.
Test [13] has as its target K63-linked diubiquitin (UniProt P0CG48). The test is described as follows: fluorescence anisotropy competition against the fluorescent Rap80 tUIM peptide at saturating K63-Ub2.
The target in test [14] is K63-linked tetraubiquitin (UniProt P0CG48). The test is described as follows: fluorescence anisotropy competition with fluorescent Vps27 7aa linker peptide.
The target of test [15] is K48-linked tetraubiquitin (UniProt P0CG48). Described as above.
Test [16] addresses K63-linked diubiquitin (UniProt P0CG48). Description: fluorescence anisotropy. This is another data set of the same source.
The target of test [17] is K63-linked tetraubiquitin (UniProt P0CG48). Description: fluorescence anisotropy. This is another data set of the same source.
The target in test [18] is K48-linked tetraubiquitin (UniProt P0CG48). Description: fluorescence anisotropy. The source holds these as a separate data set.
Test [19] shares this target. Description: fluorescence anisotropy, against K63-Ub4.
Test [20] deals with K48-linked diubiquitin (UniProt P0CG48). The test is described as follows: fluorescence anisotropy, against K63-Ub2.
Test [21] addresses K63-linked diubiquitin (UniProt P0CG48). Description: fluorescence anisotropy to high K63-Ub2 concentrations, divalent-divalent complex fit, avid mode.
The target is the same in test [22]. Description: fluorescence anisotropy, divalent-divalent complex fit, non-avid mode.
The target in test [23] is K63-linked tetraubiquitin (UniProt P0CG48). Description: fluorescence anisotropy, solution state.
Test [24] has the same target. Description: SPR, captured on anti-GST antibody.
In test [25] the target is K63-linked diubiquitin (UniProt P0CG48). The test is described as follows: fluorescence anisotropy; Rap80 tUIM with 9-alanine linker.
For test [26], the target named is K48-linked tetraubiquitin (UniProt P0CG48). The test is described as follows: fluorescence anisotropy, ratio of Kd for Ub4 chains.
In test [27] the target is K63-linked diubiquitin (UniProt P0CG48). Description: ITC, single-site model. (In general: In ITC the heat of successive injections is recorded.)
The target is the same in test [28]. The test is described as follows: ITC, single-site model; unit mM, evidently µM.

In general, Kd refers to the free concentration of one partner at which half of the binding sites on the other are occupied at equilibrium, for simple one-to-one binding. Read a high Kd as lower affinity. As for Rap80_S101E (peptide), the Kd with K48-linked diubiquitin [1] stood at 170 µM; with K63-linked diubiquitin [2], 16 µM.

On to “Rap80 UIM1 peptide, fluorescein-labelled”, for which the Kd with K48-linked diubiquitin [3] amounted to 280 µM.

Regarding “Rap80 tUIM with 9-alanine linker (peptide)”, the fold weaker than 7 A with K63-linked diubiquitin [4] was more than 25 fold.

For GST-hHR23A UBA1, the Kd was determined as 4.7 µM in test [5], 13 µM in [6], 36 µM in the test with K48-linked diubiquitin [7] and 26 µM with K63-linked diubiquitin [8]. Further, the fold tighter than the free domain in test [9] is more than 6 fold.

For “GST-Ede1 UBA (from UniProt P34216 1336-1381)”, the Kd in test [5] amounted to 6 µM; in [6] it was 25 µM; with K48-linked diubiquitin [7], 110 µM; in the test with K63-linked diubiquitin [8] it was 48 µM.

Consider Ddi1 UBA, fluorescein-labelled, for which, in test [10], the fold difference in Kd for K63- and K48-Ub4 is less than 2 fold. Besides, the Kd in [11] is 92 µM; in test [12], 50 µM.

As for Rap80_ARLEEKV (peptide), the Kd with K48-linked diubiquitin [1] came to 230 µM; with K63-linked diubiquitin [2], 17 µM.

For the substance Rap80_DLKAAIQ (peptide), the Kd was 129 µM with K48-linked diubiquitin [1] and 10 µM with K63-linked diubiquitin [2].

Consider Rap80_nolinker (peptide), for which, in the test with K63-linked diubiquitin [2], the Kd amounted to 47 µM.

For orientation: Ki means a measure of affinity in units of concentration, obtained from inhibition or displacement. The substance unlabeled Rap80 tUIM peptide came in with a Ki with K63-linked diubiquitin [13] of 24 µM.

With “GST-DRM2 UBA1 (from UniProt Q9M548 106-154)”, the Kd in the test with K48-linked diubiquitin [7] was 140 µM; with K63-linked diubiquitin [8], 89 µM.

Regarding “Ubc1 UBA, His-tagged, Alexa-fluor 546 labelled”, the equilibrium dissociation constant (Kd) in test [11] turned out to be 170 µM; in test [12] it was 37 µM.

“Rap80 UIM2 peptide, fluorescein-labelled” gave a Kd in the test with K48-linked diubiquitin [3] of 200 µM.

For the substance Vps27 (wt) tandem UIM peptide, the Kd with K48-linked diubiquitin [1] was 211 µM; in the test with K63-linked diubiquitin [2] it was 67 µM; in test [14] it was 29 µM; in test [15], 31 µM.

“Rap80 tUIM peptide with no 6xHis-tag and fluorescein on a C-terminal lysine side chain (expressed protein ligation)”: the Kd in the test with K63-linked diubiquitin [16] was determined as 19 µM. That is a double-digit micromolar value.

Rap80_S101A (peptide): the Kd with K48-linked diubiquitin [1] turned out to be 152 µM; with K63-linked diubiquitin [2] it was 11 µM.

Consider “GST-Ubc1 UBA (from UniProt P21734 167-215)”, for which the Kd in the test with K48-linked diubiquitin [7] stood at 460 µM.

Turning to ataxin-3 Rap80 linker (peptide), the Kd in [17] amounted to 11 µM; in test [18] it was 7.8 µM; with K48-linked diubiquitin [1], 160 µM; with K63-linked diubiquitin [2], 60 µM.

For “Ede1_rhodamine (from UniProt P34216 1338-1381)”, the fold preference for K48-polyUb (in test [19]; with K48-linked diubiquitin [20]) was less than 2 fold each time. For the same substance, the Kd in test [11] was found to be 54 µM; in test [12], 31 µM; in the test with K48-linked diubiquitin [3], 86 µM; with K63-linked diubiquitin [16], 120 µM.

As for “Rap80 tandem UIMs (wt) peptide, His6-tagged, fluorescein-labelled”, the Kd in test [17] was 3.6 µM; in [18], 14 µM; in the test with K63-linked diubiquitin [2], 21.6 µM; with K63-linked diubiquitin [21], 22 µM; with K63-linked diubiquitin [22] it was 1000 µM; in test [11], 3.8 µM. In test [12], the Kd was determined as 15 µM.

In test [23], “Rap80 (1-233), fluorescein-labelled (from UniProt Q96RL1 1-233)” registered a fold preference over K48-Ub4 of 7 fold. Further, the Kd amounted to 3.4 µM in [11] and 23 µM in test [12].

Consider “GST-fmm (functionally monomeric mixture; GST-His/GST-Ede1 heterodimer) (from UniProt P34216 1336-1381)”, for which, in [24], the Kd was determined as 23 µM.

As to Rap80 tUIM with 9-alanine linker, in the test with K63-linked diubiquitin [25], the Kd is 92 µM.

On to Rap80 ataxin linker (peptide), for which the Kd was found to be 20 µM in test [17], 3.4 µM in [18], 143 µM in the test with K48-linked diubiquitin [1] and 115 µM with K63-linked diubiquitin [2]. The fold K48 preference in [26] is 6 fold.

Turning to “Rap80 tUIM peptide with a C-terminal 3-amino acid extension (DWS)”, the n (sites) in the test with K63-linked diubiquitin [27] was 0.97 sites. The substance also yielded a Kd with K63-linked diubiquitin [28] of 17600 µM.

With “Dsk2 UBA, fluorescein-labelled (from UniProt P48510 327-371)”, the fold difference in Kd for K63- and K48-Ub4 in test [10] is less than 2 fold. Further, the Kd amounted to 2.2 µM in [11] and 1.4 µM in [12].

As to “fluorescein-labeled hHR23A-UBA1 domain (from UniProt P54725 159-201)”, the Kd in [11] was 30 µM; in test [12] it was 9 µM.

Turning to Ataxin3 (wt) tandem UIM peptide, the Kd in test [17] amounted to 15 µM; in test [18], 3.3 µM; in the test with K48-linked diubiquitin [1], 100 µM; with K63-linked diubiquitin [2], 91 µM. The fold preference over K63-Ub4 in test [10] stood at 5 fold.
